Source: a protein production outcome set (Wang et al. 2014)

Test: label from the status in PepcDB records

Sequence | protein production
MTIAPTTLLLFAATALAELVGCYLPYLWLRKGGSVWLLLPTALSLAVFVWLLSLHPEASGRVYAAYGGVYIASALLWLWWVDGVTPTRWDLLGAACCLLGMAVIMFSPRSA | failed
QDKKEQFKQLFQIVEQSFGRPLSPYEIETLNQWIDVDHHDLSVIQAALDEALSQNKLSFKYIDRILLNWKKNNV | not failed
MTFSAFFQTIDDYSFRPMIPSFIRLLRFTGLFIAIFAPALYIAMISFHYEVIPLKLLLTIGESRAKIPFPPILEALLMELVLEMLREAAVRLPGPVGQTIGVVGGIVIGQAAVQAGIVSNVMVIVVSITAVASFIIPNLEMSAGIRLLRFPMMIIASLFGVIGIMVGMAIIIIHILSMESLGVPYGSPFSPLFASDLKDILIRLPWKIMKKRPLSLNLKQENRQSDIEGTEEDK | failed
MPSLGCCYIMGGTVLWAIAAELFFESMNLITWLADFSRGHCVGICAALVPSILLWTTICAVLIALGQPRWSVNTAYVATLTVCGVMVLHVASWFSIGVITPVTFILLGLSLSCGSLATLFWRYSSQWQKFCHSGLRETIKAKWPQTLKI | failed
MGLVTDEVRARAEKYTGDEICREKTKEFLKEVSMPNGLLPLKDIEEVGYDRETGIVWLKQKKSITHKFEAIGKLVSYATEVIAQVEVGKIKKLTGVKAKELLIWVTLNELVLEQPTSSGKINFRTPTGLSRTFPVSAFVVPEVEKPATEKNNGTTEVKEAVAVTDA | failed
MNTKRNRLLYATFTILVIILGLSSRKFAFALPALLNDYLGDALWALMIFTGFGFLFPKIATKKLAFISLIFCYGIEVSQLYHAEWIDSIRATTLGGLVLGYGFLWSDLVAYTIGVGIGFLFELILWKK | failed
MSLATQQLGIIGLFVPTFFGSYYGTILKQTDLELRAVHRHVVVATGCGESTPREQALEAVRFLIGRDCDGVVVISHDLHDEDLDELHRMHPKMVFLNRAFDALPDASFCPDHRRGGELAAATLIEHGHRKLAVISGPFTASDNVERLDGFFDELARHGIARDSVPLIESDFSPEGGYAATCQLLESKAPFTGLFCANDTMAVSALARFQQLGISVPGDVSVIGYDDDYSAAYAAPALTSVHIPTAELTQNAVRWLINQCYGTKWEIFREFPVTVSMRASVAREGHHHHHH | not failed
MVNLGAMLFRGRGVKLSQQFAVIGLGRFGRGVCETLHGMGYEVLGSDNQERLVNQVLQDHIVDHAIQLDATDPQALKEAGIFEFETVIVAIGNHLDASIITTLNLKEAGVPKVIAKASSEVHKKLLERVGADRVVFPEYEAGCELARSLTRPAILDCLNLDPQKSIVEVKVPEAFHGRTVAEVELRSRYGLNLIALRFDDKFEINPSPSQKLHQGDIMVVIGDNNDIERFLRSQHVH | failed
MTTQSQFLVNLSYGGLASQSNLRANNRVSPSSCQITRTNRSWALPVSFKVEKFQLQRGRRRRGSPCFGESEGLVKNGIGDADGIIIVDHGSRRRESNLMLEEFVKMFKEKTGYPIVEPAHMELAEPSIKDAFSLCVQQGAKRVVVSPFFLFPGRHWHTDIPSLTADAAKEFSGISYLITAPLGPHNLLLDVVNDRIQHCLSHVEGDADECLVCAGTNKCKLYNSS | failed
MKHVHGNGLVLGAAAFVFLAAQPVSAQTTQITEVKLNPGNGGLSVVLKTSAGSRPQVFTTKRGKALVADIINTQLRLPQGNNFRQDKPAAGIASVEVVQLDANSIRVIVTGDSDAPTSQPVIRQQDGITLSLTPSTGTTASAPVTPRPPVSTTPPASTPAQTGVVPNVLVPNPQVTIDGKPAQPAGPGQPLSQAPPFLPRAVAPPVGDIAISATDASPSTIDLGTQERVPRLVLRDAPVREVLSLLARAANLNLAYISDGVGGTPAAGGQGISQTISLDIENEPVQDVFNYVLRLSGLEANRSNRTIFVGPKLPNSTRDVVMRNLRLNQVNVGVALNFLVGLGAETAVSRERQVTNVNAVPVGTGVAPITQTQTTTETRVETQRINFQDSNPLLRGLQALGDERTNSLTLIGPPKLVEMAMNQLTQLDIRRRQVVVNVKIIDVNLSNTQDNNASLSFGIGNNYFSSDGGAASLNIGGLNPPSAGNVRNSLNPTVTTNPYSSGNTFLDLTQSVGPVPDTGVDTRNITINNPGGGSITETQGQDLNFVQRRAGISGDPFETGITAVTQGTPNIIRRTTTTDPTTGAVTETTTVTEGTRGSITAALPSLFQYPKRLLANLQAQVTNGNAKILTDPTLIVQEGQTANVKLTQEVVGNITSETTRGDGASTQTVTAEKTDVGLTLAVKIDRIDDNGFVSLSVAPVVKAPQSSAVINVSGNSQTIFLVSERSLNSGMIRLRDGQTLILSGIIQDQDRTSVSKIPILGDIPLIGSLFRKTNRTNERREVIVLLTPQVMDDSQNSSYGYNYSPSPEVRQMLERRGLNTPRR | failed
DGDIGQLSKTFNYMVSELKSRRNELIAVRDQIDERRRFSEAVLSGVTAGVAGIDDNGNITIINRSIETMFDIRSEHVIGHSLLSLSAEIDQVFQFARSLGRKNHREQVTLSVAGQERVCNVQITMEKDDG | failed
MIIYNIVYPMILILLYEYLAVNYFKGDKSITSSYYYVIVLIPFFIFTNIITMAYVAKDESLSKTAYRFLSAPIDNSAIVLSKIISCTVISWGCSLILLIISKVLLSVNFEGSTLKILILFFTENFMAAAIGIFLGIVMKNFKTIKGILNIPISILGVLGGCFFPVGALGRTFEKVSYISPFTWINRGIISEVYDKSQTILVGTILVTLVFGIIFSIGASILFNKEVFL | failed
MSDKRDARFYQEVLDICLTAGRLMIEGGSEMYRVEDTMLRIARNADINDPRVFATPTCVFMSLDGGKLSQMKQIRDRNINLELVDRVNELSREFATKKIDLSELKNRIIEVANAPSFPMWMQIIGAAVLSATLMVLFMDDYDWVDFPGAALVGAIGFWAYYEFKKYTKVRFLSELIAAMIMGVLALGLNYLYPKMIIDNILIGALMTLVPGLAMTNALRDLFMGDLLSGIVRMCEAILSALALGGGVGLVLKFVGG | failed
MIHDLLLACRSHNPEQLGIKAFNETTVIDQFIHPCEREIFMDIIKIIKVYQEVEQFTHSSGRKSDTHGELPDSLHGYYLLNLAKGIEMALEEYYAEIGRLEKYCLGNERNSLSYVYNALYAKFPLLVFMRNLITEIHVLNLRGCVLLHNLHQQCEHGDIQLEKAIKIIMKPVKNAFFSSLAHWLLFGVIDDVHSEFFIKFTPTDAVDGSSFSKSATCSLLSAEKNPEDYIWQYEVNMSQLPGFFSIVLAEKVLFVGQTVLVFKMGRNVKVKNKTDPLAAKLAELDSDDIYQLWSGRESEFFKMVVDLSNEDTINVFRLEKVIIDIKNYVSARLSEIAVNEVDLERQMGLIKDFFLLGRGEFYLEFCSQMVGTMETYREERFKNVTRSFELAATVTGITDDLDKFSLICQRSTSEPDDTSDFNFLQGLSLKYEYEWPLNLLFSPTTIERYNNIFRFLLIIRTYQYEIQRVWAKQTWRAKSAKDVPPNNKIITLRNYLMFFLNNMQYYIQVDVLESQFGILMNVIKSRSDFEVIQRAHTVFLANVLSHCFLLNESETQLNVTGSQNRNPIYGTLLKLFGICEKFAHMTQTKDPSDDLEDEVDQLNESFGVQIASLIQLLVDVKSASCLGPLSQLLLRLDFNCWFSASHNTSA | failed
MFMAKRYENMDNVSTKKSIRSFLRWRKERKQNKKDFSFLVEQSPVKQSAFLQSNVEKTTITWIGHSTFLIQTNGLNILTDPVWANKLKLVPRLTEPGLSIEALPKIDIVLISHGHYDHLDFSTLRQLNDDVLYLVPIGLKKLFTRKKFKHVEEYKWWESTIINEVSFHFVPSQHWTRRFLFDMNTSHWGGWIIDNETTMETIYFCGDSGYFQGFKEIGERFLIDIALMPIGAYEPEWFMKVSHVSPEEAVQAYLDLNATHFIPMHYGAFALADETPREAITRLRNNWNLRMLPWEQLHVLFLGQTFIYSNATNNKQIKEKIETLHV | failed
MITLTTDFGLKGPYVGEMKVAMLRINPNAKIVDVTHSVTRHSILEGSFVMEQVVKYSPKGTVHVGVIDPGVGTERRAIVIEGDQYLVVPDNGLATLPLKHIKVKSVYEIIPDKIRKFTGWEISSTFHGRDIFGPAGALIEKGIHPEEFGREIPVDSIVKLNVEPRKEGDVWILKVIYIDDFGNVILNLENYEKPRTVELLDFNLRLPYLETYGLVEKGEMLALPGSHDYLEIAVNMGSAAERLNVKVGDELRVRLL | not failed
MHCLIHVPELMNVKGIGGFENLCDLELLTSYLEEVDLIMTNHSTKRSSRSFKISRDHSTTRSSRAHHHFTSPLDPERSSNSITPLDCILDDKLQSLLHSALNQTLEHKEEKKIPAIHSSSHSTTLVEYSS | failed
